System: Ramos cells
Assay: In vitro cytotoxicity MTS assay, chequerboard of ADC and rituximab (Example 4)
Format: cell-based
Details: single agent
Experimental: Ramos cells were cultured RPMI 1640 supplemented with 10% Hyclone FBS. The concentration and viability of cells from a sub-confluent (80-90% confluency) T75 flask were measured by trypan blue staining, and counted using the LUNA-II™ Automated Cell Counter. Cells were diluted to 2 x10^5/ml, dispensed (50 µl/well) into 96-well flat-bottom plates. A chequerboard was set up in combining 10-fold dilutions of ADCTx19 or ADCTx22 and 10-fold dilutions of rituximab in RPMI before 50 µl of each dilution was transferred into the 96-well plate containing the cells. This plate was incubated at 37° C. in a CO2-gassed incubator for 4 days. At the end of the incubation period, cell viability was measured by MTS assay. MTS (Promega) was dispensed (20 µl per well) into each well and incubated for 4 hours at 37C in the CO2-gassed incubator. Well absorbance was measured at 490 nm. IC50 was determined from the dose-response data using GraphPad Prism using the non-linear curve fit algorithm: sigmoidal dose-response curve with variable slope.

“Rituximab: anti-CD20 agent, antibody, CAS 174722-31-7” was tested, and the “cytotoxic effect by itself” value was “no significant cytotoxic effect”.
